These results are taken from US20210380703A1 (RIGEL PHARMACEUTICALS, published 2021).

One assay addresses T1, Human ACVR2A (human, UniProt P27037 20-135, limits assumed).
T1 construct: also called activin receptor, type II A
In words: ELISA. An outline of the steps:
(§1)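 Binding signal was read by ELISA after ACVR2A-specific monoclonal antibodies were tested against human ACVR2A and mouse ACVR2A, with human Fc as the negative control.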

A further assay addresses Mouse ACVR2A (mouse, UniProt P27038 20-135, limits assumed). In words: ELISA. An outline of the steps:
as §1

The next assay concerns the target T2, Goat anti-Human Kappa.
T2 construct: Positive control of the ELISA; also called biotinylated goat anti-human kappa light chain
The experiment in a line: ELISA, positive control. An outline of the steps:
as §1
Further: test concentration or dose not given here.

Mouse ACVR2A, sequence (P27038 20-135 limits assumed): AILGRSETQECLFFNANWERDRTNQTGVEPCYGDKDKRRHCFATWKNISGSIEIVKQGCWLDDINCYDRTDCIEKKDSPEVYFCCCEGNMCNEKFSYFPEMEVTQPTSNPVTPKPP
T1 sequence (P27037 20-135 limits assumed): as the sequence (P27038 20-135 limits assumed) above, with R20K, I73V counted along it

B1: 367_G05 (antibody, V domains shown)
VH: EVQLLESGGGLVQPGGSLRLSCAASGFTFSDYGMNWVRQAPGKGLEWVANINYNGGYTSYADSVKGRFTISRDNSKNTLYLQMNSLRAEDTAVYYCARSANWHDTALDYWGQGTLVTVSS
VL: DIQMTQSPSSLSASVGDRVTITCRASQSIVSYLNWYQQKPGKAPKLVIYAATSLASGVPSRFSGSGSGTDFTLTISSLQPEDFATYYCQQSYDTPLTFGGGTKVEIK
Consider B1, for which the optical density with Human ACVR2A was determined as 2.41 OD; in the assay with Mouse ACVR2A it was 2.71 OD; with Goat anti-Human Kappa, 3.37 OD.

B2: 368_C05 (antibody, V domains shown)
VH: EVQLLESGGGLVQPGGSLRLSCAASGFTFDSYGMNWVRQAPGKGLEWVSGINYNSGYTSYADSVKGRFTISRDNSKNTLYLQMNSLRAEDTAVYYCARSANWHDTALDYWGQGTLVTVSS
VL: DIQMTQSPSSLSASVGDRVTITCRASQSILSYLNWYQQKPGKAPKLVIYAATSRASGVPSRFSGSGSGTDFTLTISSLQPEDFATYYCQQSDSNPLTFGGGTKVEIK
As to B2, the optical density in the assay with Human ACVR2A was determined as 1.82 OD; in the assay with Mouse ACVR2A it was 2.02 OD; in the assay with Goat anti-Human Kappa, 3.36 OD.

B3: 368_D04 (antibody, V domains shown)
VH: EVQLLESGGGLVQPGGSLRLSCAASGFTFSSYGMNWVRQAPGKGLEWVSGINYNGGYKSYADSVKGRFTISRDNSKNTLYLQMNSLRAEDTAVYYCARSANWHDTALDYWGQGTLVTVSS
VL: DIQMTQSPSSLSASVGDRVTITCRASQSISTYVNWYQQKPGKAPKLVIYAVTSRHSGVPSRFSGSGSGTDFTLTISSLQPEDFATYYCQQSYDSPLTFGGGTKVEIK
On to B3, for which the optical density was determined as 2.46 OD with Human ACVR2A, 2.7 OD in the assay with Mouse ACVR2A and 3.67 OD with Goat anti-Human Kappa.

B4: 367_G06 (antibody, V domains shown)
VH: EVQLLESGGGLVQPGGSLRLSCAASGFTFSSYGMNWVRQAPGKGLEWVSGINYNSGYKSYADSVKGRFTISRDNSKNTLYLQMNSLRAEDTAVYYCARSANWHDTHLDYWGQGTLVTVSS
VL: DIQMTQSPSSLSASVGDRVTITCRASQSILTYVNWYQQKPGKAPKLLIYATTSLHSGVPSRFSGSGSGTDFTLTISSLQPEDFATYYCQQSYDTPLTFGGGTKVEIK
For B4, the figures for the optical density in the assay with Human ACVR2A, with Mouse ACVR2A and in the assay with Goat anti-Human Kappa were 2.64 OD, 2.81 OD and 3.35 OD, respectively.

B5: 368_D11 (antibody, V domains shown)
VH: EVQLLESGGGLVQPGGSLRLSCAASGFTFDDYGMNWVRQAPGKGLEWVSNINYNGGYKSYADSVKGRFTISRDNSKNTLYLQMNSLRAEDTAVYYCARSANWHDTALDYWGQGTLVTVSS
VL: DIQMTQSPSSLSASVGDRVTITCRASQSILTYLNWYQQKPGKAPKLVIYAATSRASGVPSRFSGSGSGTDFTLTISSLQPEDFATYYCQQSYDLPLTFGGGTKVEIK
In the case of B5, the optical density in the assay with Human ACVR2A was determined as 2.8 OD; with Mouse ACVR2A, 2.96 OD; with Goat anti-Human Kappa it was 3.49 OD.

B6: 368_D05 (antibody, V domains shown)
VH: EVQLLESGGGLVQPGGSLRLSCAASGFTFSSYSMNWVRQAPGKGLEWVSGINYNGGYTSYADSVKGRFTISRDNSKNTLYLQMNSLRAEDTAVYYCARSANWHDTALDYWGQGTLVTVSS
VL: DIQMTQSPSSLSASVGDRVTITCRASQSILTYLNWYQQKPGKAPKLVIYAATSRASGVPSRFSGSGSGTDFTLTISSLQPEDFATYYCQQSDDSPLTFGGGTKVEIK
Turning to B6, the optical density is 2.86 OD with Human ACVR2A, 2.87 OD in the assay with Mouse ACVR2A and 3.38 OD in the assay with Goat anti-Human Kappa.

B7: 368_A05 (antibody, V domains shown)
VH: EVQLLESGGGLVQPGGSLRLSCAASGFTFSSYSMNWVRQAPGKGLEWVAGINYNSGYTGYADSVKGRFTISRDNSKNTLYLQMNSLRAEDTAVYYCARSANWHDTALDYWGQGTLVTVSS
VL: DIQMTQSPSSLSASVGDRVTITCRASQSIVSYLNWYQQKPGKAPKLVIYAATSRASGVPSRFSGSGSGTDFTLTISSLQPEDFATYYCQQSYDSPLTFGGGTKVEIK
Take B7: the optical density is 2.71 OD with Human ACVR2A, 2.7 OD with Mouse ACVR2A and 3.46 OD with Goat anti-Human Kappa.

B8: 367_H06 (antibody, V domains shown)
VH: EVQLLESGGGLVQPGGSLRLSCAASGFTFSSYGMNWVRQAPGKGLEWVSNINYNGGYTGYADSVKGRFTISRDNSKNTLYLQMNSLRAEDTAVYYCARSANWHDTHLDYWGQGTLVTVSS
VL: DIQMTQSPSSLSASVGDRVTITCRASQSIITYLNWYQQKPGKAPKLLIYAATSRASGVPSRFSGSGSGTDFTLTISSLQPEDFATYYCQQSYDTPLTFGGGTKVEIK
As to B8, the figures for the optical density with Human ACVR2A, with Mouse ACVR2A and with Goat anti-Human Kappa were 2.69 OD, 3.08 OD and 3.65 OD, respectively.

B9: 368_B06 (antibody, V domains shown)
VH: EVQLLESGGGLVQPGGSLRLSCAASGFTFDSYGMHWVRQAPGKGLEWVSGINYNSGYTSYADSVKGRFTISRDNSKNTLYLQMNSLRAEDTAVYYCARSANWHDTALDYWGQGTLVTVSS
VL: not shown
As for B9, the optical density with Human ACVR2A came to 2.06 OD; with Mouse ACVR2A, 2.34 OD; with Goat anti-Human Kappa, 3.16 OD.

B10: 368_B07 (antibody, V domains shown)
VH: EVQLLESGGGLVQPGGSLRLSCAASGFTFSDYSMNWVRQAPGKGLEWVSNINYNGGYKSYADSVKGRFTISRDNSKNTLYLQMNSLRAEDTAVYYCARSANWHDTALDYWGQGTLVTVSS
VL: DIQMTQSPSSLSASVGDRVTITCRASQSIVSYLNWYQQKPGKAPKLLIYAATSLASGVPSRFSGSGSGTDFTLTISSLQPEDFATYYCQQSYSSPLTFGGGTKVEIK
Take B10: the optical density turned out to be 1.91 OD in the assay with Human ACVR2A, 2.06 OD with Mouse ACVR2A and 3.13 OD with Goat anti-Human Kappa.

B11: 368_E01 (antibody, V domains shown)
VH: EVQLLESGGGLVQPGGSLRLSCAASGFTFSSYSMNWVRQAPGKGLEWVASINYNSGYTGYADSVKGRFTISRDNSKNTLYLQMNSLRAEDTAVYYCARSANWHDTHLDYWGQGTLVTVSS
VL: DIQMTQSPSSLSASVGDRVTITCRASQSILSYLNWYQQKPGKAPKLLIYAVTSRHSGVPSRFSGSGSGTDFTLTISSLQPEDFATYYCQQSYSLPLTFGGGTKVEIK
Take B11: the figures for the optical density in the assay with Human ACVR2A, with Mouse ACVR2A and with Goat anti-Human Kappa were 2.57 OD, 2.85 OD and 3.74 OD, respectively.

B12: 368_A07 (antibody, V domains shown)
VH: EVQLLESGGGLVQPGGSLRLSCAASGFTFSSYSMNWVRQAPGKGLEWVAGINYNSGYTSYADSVKGRFTISRDNSKNTLYLQMNSLRAEDTAVYYCARSANWHDTHLDYWGQGTLVTVSS
VL: DIQMTQSPSSLSASVGDRVTITCRASQSILTYLNWYQQKPGKAPKLVIYATTSRASGVPSRFSGSGSGTDFTLTISSLQPEDFATYYCQQSNELPLTFGGGTKVEIK
B12: the optical density in the assay with Human ACVR2A worked out at 2.11 OD; with Mouse ACVR2A, 2.31 OD; with Goat anti-Human Kappa, 3.65 OD.

B13: 368_D01 (antibody, V domains shown)
VH: EVQLLESGGGLVQPGGSLRLSCAASGFTFSSYGMHWVRQAPGKGLEWVANINYNGGYTSYADSVKGRFTISRDNSKNTLYLQMNSLRAEDTAVYYCARSANWHDTALDYWGQGTLVTVSS
VL: DIQMTQSPSSLSASVGDRVTITCRASQSILSYLNWYQQKPGKAPKLVIYAATSRASGVPSRFSGSGSGTDFTLTISSLQPEDFATYYCQQSDSTPLTFGGGTKVEIK
B13: the optical density with Human ACVR2A turned out to be 2.75 OD; with Mouse ACVR2A, 2.97 OD; with Goat anti-Human Kappa it was 3.65 OD.

B14: 367_G10 (antibody, V domains shown)
VH: EVQLLESGGGLVQPGGSLRLSCAASGFTFDDYGMNWVRQAPGKGLEWVSGINYNGGYTSYADSVKGRFTISRDNSKNTLYLQMNSLRAEDTAVYYCARSANWHDTALDYWGQGTLVTVSS
VL: DIQMTQSPSSLSASVGDRVTITCRASQSIISYVNWYQQKPGKAPKLLIYAATSRASGVPSRFSGSGSGTDFTLTISSLQPEDFATYYCQQSYDSPLTFGGGTKVEIK
Turning to B14, the results for the optical density with Human ACVR2A, with Mouse ACVR2A and with Goat anti-Human Kappa were 2.12 OD, 2.32 OD and 3.45 OD, respectively.

B15: 368_B01 (antibody, V domains shown)
VH: EVQLLESGGGLVQPGGSLRLSCAASGFTFSSYGMNWVRQAPGKGLEWVSGINYNSGYKSYADSVKGRFTISRDNSKNTLYLQMNSLRAEDTAVYYCARSANWHDTALDYWGQGTLVTVSS
VL: DIQMTQSPSSLSASVGDRVTITCRASQSISSYLNWYQQKPGKAPKLLIYAATSRASGVPSRFSGSGSGTDFTLTISSLQPEDFATYYCQQSYETPLTFGGGTKVEIK
For B15, the optical density with Human ACVR2A was found to be 2.61 OD; with Mouse ACVR2A it was 2.59 OD; with Goat anti-Human Kappa, 3.71 OD.

B16: 368_A01 (antibody, V domains shown)
VH: EVQLLESGGGLVQPGGSLRLSCAASGFTFSSYGMNWVRQAPGKGLEWVSNINYNGGYTSYADSVKGRFTISRDNSKNTLYLQMNSLRAEDTAVYYCARSANWHDTALDYWGQGTLVTVSS
VL: DIQMTQSPSSLSASVGDRVTITCRASQSIISYLNWYQQKPGKAPKLLIYAATSRHSGVPSRFSGSGSGTDFTLTISSLQPEDFATYYCQQSYDNPLTFGGGTKVEIK
As for B16, the optical density with Human ACVR2A is 2.99 OD; with Mouse ACVR2A, 2.9 OD; with Goat anti-Human Kappa, 3.68 OD.

B17: 367_H11 (antibody, V domains shown)
VH: EVQLLESGGGLVQPGGSLRLSCAASGFTFSSYGMNWVRQAPGKGLEWVAGINYNGGYKGYADSVKGRFTISRDNSKNTLYLQMNSLRAEDTAVYYCARSANWHDTALDYWGQGTLVTVSS
VL: DIQMTQSPSSLSASVGDRVTITCRASQSIISYVNWYQQKPGKAPKLVIYAATSRASGVPSRFSGSGSGTDFTLTISSLQPEDFATYYCQQSYNSPLTFGGGTKVEIK
Take B17: the optical density is 2.37 OD with Human ACVR2A, 2.69 OD in the assay with Mouse ACVR2A and 3.61 OD with Goat anti-Human Kappa.

B18: 368_A09 (antibody, V domains shown)
VH: EVQLLESGGGLVQPGGSLRLSCAASGFTFDSYSMNWVRQAPGKGLEWVSGINYNGGYTSYADSVKGRFTISRDNSKNTLYLQMNSLRAEDTAVYYCARSANWHDTHLDYWGQGTLVTVSS
VL: DIQMTQSPSSLSASVGDRVTITCRASQSILSYVNWYQQKPGKAPKLLIYAVTSRASGVPSRFSGSGSGTDFTLTISSLQPEDFATYYCQQSYDSPLTFGGGTKVEIK
For the molecule B18, the optical density in the assay with Human ACVR2A is 2.51 OD; with Mouse ACVR2A it was 2.63 OD; in the assay with Goat anti-Human Kappa, 3.55 OD.
